Experimental data taken from paper doi:10.1101/2021.04.26.441525 (bioRxiv, 2021).

Target: the molecule itself
Assay: crystal structure

B1: BT_1526 myo-inositol phosphate synthase (MIPS) of Bacteroides thetaiotaomicron VPI-5482 (enzyme, UniProt Q8A7J8 1-429, looked up)
chain: MKQEIKPATGRLGVLVVGVGGAVATTMIVGTLASRKGLAKPIGSITQLATMRMENNEEKLIKDVVPLTDLNDIVFGGWDIFPDNAYEAAMYAEVLKEKDLNGVKDELEAIKPMPAAFDHNWAKRLNGTHIKKAATRWEMVEQLRQDIRDFKAANNCERVVVLWAASTEIYIPLSDEHMSLAALEKAMKDNNTEVISPSMCYAYAAIAEDAPFVMGAPNLCVDTPAMWEFSKQKNVPISGKDFKSGQTLMKTVLAPMFKTRMLGVNGWFSTNILGNRDGEVLDDPDNFKTKEVSKLSVIDTIFEPEKYPDLYGDVYHKVRINYYPPRKDNKEAWDNIDIFGWMGYPMEIKVNFLCRDSILAAPIALDLVLFSDLAMRAGMCGIQTWLSFFCKSPMHDFEHQPEHDLFTQWRMVKQTLRNMIGEKEPDYLA
stoichiometry N: 4
